Laboratory results from article PMC5715260.
Blank lines part the entries; values can stand above or below the substance they belong to.

Tests used:
Experiment in all cases: high performance liquid chromatography; mass of the native TTR compared with the subunit mass; data not shown
[1] = molecular target: pigC/crocTTR (Crocodylus porosus TTR with the C-terminal sequence changed to that of S. scrofa TTR) (Crocodylus porosus | Sus scrofa) (UniProt O55245)
[2] = molecular target: pigC/huTTR (human TTR with the C-terminal sequence changed to that of Sus scrofa TTR) (human | Sus scrofa)
[3] = molecular target: xenoN/pigC/huTTR (human TTR with the N-terminal and C-terminal sequences changed to those of Xenopus laevis and S. scrofa, respectively) (Xenopus laevis | human | Sus scrofa) (UniProt B7ZS96)

Chain of pigC/huTTR (human TTR with the C-terminal sequence changed to that of Sus scrofa TTR) (P50390 whole entry): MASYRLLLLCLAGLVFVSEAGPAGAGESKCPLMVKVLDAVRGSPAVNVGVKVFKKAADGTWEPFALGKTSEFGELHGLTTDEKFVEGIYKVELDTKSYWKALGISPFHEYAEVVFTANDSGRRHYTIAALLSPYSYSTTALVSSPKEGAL
Chain of xenoN/pigC/huTTR (human TTR with the N-terminal and C-terminal sequences changed to those of Xenopus laevis and S. scrofa, respectively) (P50390 whole entry, looked up): as the sequence (P50390 whole entry) above
Chain of xenoN/pigC/huTTR (human TTR with the N-terminal and C-terminal sequences changed to those of Xenopus laevis and S. scrofa, respectively) (B7ZS96 whole entry, looked up): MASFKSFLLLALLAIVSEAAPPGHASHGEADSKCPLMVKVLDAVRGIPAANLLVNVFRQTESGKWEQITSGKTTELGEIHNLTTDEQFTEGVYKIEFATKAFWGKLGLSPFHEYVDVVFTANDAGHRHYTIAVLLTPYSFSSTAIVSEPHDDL

- stoichiometry N [1]: 4
Substance: pigC/crocTTR (Crocodylus porosus TTR with the C-terminal sequence changed to that of S. scrofa TTR) (from UniProt O55245 21-114; P50390 135-150)

- stoichiometry N [2]: 4
Substance: pigC/huTTR (human TTR with the C-terminal sequence changed to that of Sus scrofa TTR) (from UniProt P50390 141-150)

- stoichiometry N [3]: 4
Substance: xenoN/pigC/huTTR (human TTR with the N-terminal and C-terminal sequences changed to those of Xenopus laevis and S. scrofa, respectively) (from UniProt B7ZS96 1-9; P50390 141-150)
